Tests used:
[1] = target: human HER3-Fc protein (R&D system) (human) (UniProt P21860); experiment: ELISA, HER3-Fc coated at 250 ng/ml
[2] = target: human HER3-Fc protein (R&D system) (human) (UniProt P21860); experiment: ELISA towards a 250 ng/ml coating solution of HER3 receptor, purified antibody
[3] = target: HER3 receptor (soluble analyte of the BIACORE analysis) (human) (UniProt P21860); experiment: SPR, BIACORE 3000, 25 °C; antibody captured by anti-mouse polyclonal on CM5, HER3 receptor injected; bivalent analyte model

B1: murine anti-HER3 monoclonal antibody 9F7-F11 (antibody, from another filing, V domains shown)
VH: EVKLVESGGGLVQPGGSLKLSCAASGFTFSSYTMSWVRQTPEKRLEWVAYISDGGGVTYYPDTIKGRFTISRDNAKNTLYLQMSSLKSEDTAMYYCARDRYGLFAYWGQGTLVTVSA
VL: DIVMTQSQKFMSTSVGDRVSITCKASQNVGIAVAWYQQKPGQSPKLLIYSASNRYTGVPDRFTGSGSGTDFTLTISNMQSEDLADYFCQQYSNYPYTFGGGTKLEIK
Work on B1 yielded an EC50 [1] of less than 1 ng/mL, an Ab titer after purification (Ab concentration showing an absorbance of 1 by ELISA) [2] of 400 pg/mL and a Kd [3] of 4.4 nM. For the same binder, the koff [3] was 0.00024 s⁻¹ and the kon [3] was 54000 M⁻¹ s⁻¹.

— patent US20140112931A1
